The target of test [1] is soluble uPAR (suPAR) (UniProt Q03405). The test is described as follows: SPR (Biacore 2000), antibody captured on protein A/G surface, suPAR injected, 25 C, 1:1 Langmuir fit. A general note: SPR reads the build-up and loss of mass on a sensor chip optically.
Test [2] has the same target. In words: SPR (Biacore 2000), antibody captured on rabbit anti-mouse surface, suPAR injected, 25 C, 1:1 Langmuir fit.

pKd: −log10 of the molar value.

Drawing on patent US20220378956A1, this text covers Kd for 2 substances.

In general, pKd refers to −log10 of the Kd, conventionally taken in molar units. A higher pKd goes with a small Kd.

Substance “Human Engineered ATN-658 variant HE ATN-4, renamed humanized mAb MNPR-101 (antibody)” had a negative logarithm of the Kd (pKd) in the test with soluble uPAR (suPAR) [1] of 9.41.

Turning to mouse monoclonal antibody ATN-658, the pKd with soluble uPAR (suPAR) [2] is 9.42.
